According to the supplement of paper PMC10567573:

B1: EPB41L3 (parent)
chain: GSKFRYSGRTQAQTRRASALIDRP

Variants of: B1
Experiment: protein stability index of a GFP-peptide fusion (GPS, HEK-293T) (PSI 1-6); higher = more stable
Conditions: c terminus: a fixed tail appended
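Also: lentivirally expressed fusions sorted by FACS into six bins by GFP to DsRed ratio, PSI derived from sequencing read proportions per bin multiplied by bin number.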

Protein stability index, by site and new letter:
A12: E 3.2; D 3.37; F 2.04; G 3.11; H 2.82; C 3.32; I 3.07
R5: C 2.67; L 2.71; N 3.23; P 3.27; I 3.07; S 3.8; V 3.2; H 3.1; D 3.74; Y 2.82; W 2.62; T 3.59; M 4.43; F 2.89; G 3.8; K 2.73; Q 3.26; E 4.08; A 3.49
Y6: A 3.85; L 3.15; I 3.62; T 4.35; H 3.22; D 4; Q 3.71; R 4.23; G 3.91; S 3.85; V 3.86; F 2.96; C 3.51; N 3.67; E 4.13; W 3.49; P 3.68; K 4.13; M 4.64
R9: S 3.44; N 3.7; W 2.33; P 3.87; M 2.85; A 2.88; H 2.93; F 2.81; I 2.81; V 2.85; D 3.52; L 2.92; Y 2.4; T 3.01; Q 3.32; C 2.94; K 2.97; E 3.53; G 3.32
T10: L 3.1; Y 2.39; P 3.74; S 2.83; W 1.82; C 1.97; A 2.97; I 2.37; G 3.66; N 3.19; D 3.56; F 2.68; M 2.39; H 3.27; V 2.84; Q 3.1; E 3.01; K 3.89; R 3.62
K3: V 2.33; S 2.64; P 2.04; Q 2.96; R 2.83; T 2.74; Y 1.89; W 2.46
Q11: K 3.11; H 2.85; M 1.94; T 2.57; E 3.29; N 3; C 2.6; R 3.78; A 2.86; S 2.18; G 3.16; L 2.5; V 2.78; P 3.46; W 1.75; I 2.95; Y 2.64; D 3.09; F 2.45
G8: S 3.46; N 3.13; Q 3.39; P 3.43; F 2.96; L 3.44; H 2.95; M 3.88; C 1.72; K 3.44; W 2.1; A 3.41; R 4.01; T 4.1; E 3.52; V 3.07; Y 2.7; D 3.02; I 2.93
S7: R 3.73; V 2.15; I 1.95; K 3.79; M 3.35; E 3.63; W 2.4; Y 2.71; N 3.05; H 2.94; A 2.91; C 2.1; F 2.96; D 3.68; G 3.85; P 3.36; T 2.95; L 3.08; Q 2.86
F4: T 4.17; M 3.48; L 3.95; P 3.47; R 4.42; A 4.23; S 4.04; Q 4.47; K 4.62; V 4.28; N 4.4; C 3.4; I 4; Y 3.56; D 4.17; H 3.83; E 3.82; G 3.62; W 2.86
